Laboratory results taken from paper doi:10.1101/2025.04.28.650977.

Assays:
Experiment in all cases: SPR
[1] = target: recombinant CIS in complex with Elongins BC (GST removed) (human) (UniProt Q9NSE2)
[2] = target: recombinant SOCS1 in complex with Elongins BC (UniProt O15524)
[3] = target: recombinant SOCS2 in complex with Elongins BC (UniProt O14508)

IC50 [1]: 200 nM
IC50 [2]: 50 nM
IC50 [3]: 1660 nM
Substance: ARAP2-pY415 peptide (competitor phosphopeptide)
